From the supplement of paper PMC10567573 come the findings set out here.

The nature of the series: protein stability index of a GFP-peptide fusion (GPS, HEK-293T) (PSI 1-6); higher = more stable.
The mark [1] stands for this setting: treatment: DMSO, c terminus: a fixed tail appended.
[2] abbreviates: treatment: MLN4924 1 uM, 8 h, c terminus: a fixed tail appended.

± gives the standard deviation.
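Note: 24-mer peptide tiles fused after GFP, lentivirally expressed, FACS-sorted into six equal bins by GFP/DsRed ratio, decoded by Illumina sequencing, PSI is the read-weighted mean bin number.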

Regarding ALMHELSNDGARRQFEFYLEEMIL [BTBD10], the protein stability index reads like this: under setting [1], 2.24 ± 0.037; under setting [2], 2.36 ± 0.69.

In the case of ALNFMKGCLKMNPDDRLTCSQLLE [CDKL4], the protein stability index was found to be 2.32 ± 0.18 under setting [1] and 2.55 ± 0.38 under setting [2].

As to DFRTKYETELSLRQLVEADINGLR [KRT36], the protein stability index is, setting by setting: under setting [1], 3.15 ± 0.15; under setting [2], 3.38 ± 0.17.

In the case of PILKRLERPQDRDTPVQNKRRRSV [CDC25B], the protein stability index under setting [1] was found to be 5.03 ± 0.49 and the protein stability index under setting [2] was 5.11 ± 0.16.

Turning to QLKACTNFDDILNVCDDYDVTCNE [KCNG1], the protein stability index amounted to 4.42 ± 0.16 under setting [1] and 4.63 ± 0.085 under setting [2].

As for EERVETTVTSLKTKVGGTNPNGGS [TPD52L1], the protein stability index is, setting by setting: under setting [1], 5.11 ± 0.28; under setting [2], 5.19 ± 0.21.

On to FSLMVTFPDVPLGIFLFCVCVIAI [TMEM175], for which the protein stability index runs as follows: under setting [1], 3.37 ± 0.5; under setting [2], 3.14 ± 0.31.

VANRHGHTCLMISCYKGHREIARY [FEM1A]: the protein stability index is, setting by setting: under setting [1], 2.54 ± 0.5; under setting [2], 2.41 ± 0.67.

FTSPDYQQQCHEMAERLEDSVLKG [SDE2] returned a protein stability index under setting [1] of 3.01 ± 0.59 and a protein stability index under setting [2] of 3.62 ± 0.7.

HDVRLNGSAAGHVLVKDNGLGCKD [TENT5C]: the protein stability index was 4.88 ± 0.38 under setting [1] and 4.92 ± 0.16 under setting [2].

Turning to EDQHKLYQQIKAGAYDFPSPEWDT [CAMK2B], the protein stability index is, setting by setting: under setting [1], 4.79 ± 0.17; under setting [2], 4.75 ± 0.12.

For VEKQGDTIEYLKRHNALLSKRLLA [TMEM192], the protein stability index under setting [1] was 2.87 ± 0.13 and the protein stability index under setting [2] amounted to 2.93 ± 0.27.

Turning to YVRRLDFFEKPDYDYLRKLFTDLF [CSNK1G3], the protein stability index was 2.45 ± 0.52 under setting [1] and 2.06 ± 0.27 under setting [2].

Regarding KRRVALSPVTENSTSLSFLDSCNS [MYBL2], the protein stability index is, setting by setting: under setting [1], 3.65 ± 0.2; under setting [2], 3.92 ± 0.34.

For RMETPKSREITTLANNQCMATESV [EHMT1], the protein stability index runs as follows: under setting [1], 4.56 ± 0.22; under setting [2], 4.79 ± 0.08.

QYQLLRCNVDLLKIIQLGLTFMNE [CNOT7] had a protein stability index under setting [1] of 2.73 ± 1.8 and a protein stability index under setting [2] of 2.86 ± 0.42.

Take VTKITLESFLAWKKRKRQEKIDKL [ZC3H15]: the protein stability index worked out at 2.78 ± 0.81 under setting [1] and 2.6 ± 0.47 under setting [2].

LTDAYGPPSNFLEIDIFNPQTVGV [SNX12]: the protein stability index worked out at 2.87 ± 0.39 under setting [1] and 3.19 ± 0.39 under setting [2].

For the sequence GLAMALEPNTTFLRKSLKAALKHL [FANCE], the protein stability index stood at 2.48 ± 0.33 under setting [1] and 2.54 ± 0.62 under setting [2].

In the case of TRRVTFEADENENITVVKGIRLSE [CHCHD3], the protein stability index by setting is: under setting [1], 4.29 ± 0.13; under setting [2], 4.47 ± 0.23.

Sequence LRPQVVTDDDGQAPEAKDGSSFSG [APMAP] yielded a protein stability index under setting [1] of 5.22 ± 0.26 and a protein stability index under setting [2] of 5.31 ± 0.15.

SRFSSSTEQSSASRLMRRHKRRRR [DVL3]: the protein stability index was 5.17 ± 0.084 under setting [1] and 5.257 ± 0.022 under setting [2].

Turning to LKKEHPGARDGIRYLEAEFKKGNR [SMG5], the protein stability index is, setting by setting: under setting [1], 4.35 ± 0.6; under setting [2], 4.29 ± 0.24.

Consider QVHAWQLYYSKKLLDSWFTSTQEK [JAGN1], for which the protein stability index came to 2.23 ± 0.29 under setting [1] and 2.29 ± 0.29 under setting [2].

With LVTIARKASLWQFLSSEKQICGTH [TRIM43], the protein stability index under setting [1] turned out to be 2.06 ± 0.34 and the protein stability index under setting [2] turned out to be 2.17 ± 0.45.

For MITLSEAYIQIWKRRDNDETNQQG [USP39], the protein stability index reads like this: under setting [1], 3.15 ± 0.31; under setting [2], 3.31 ± 0.38.

Sequence RASRLQAPVLVAAPHSTFFDPIVL [LPCAT4] had a protein stability index under setting [1] of 2.6 ± 0.31 and a protein stability index under setting [2] of 2.71 ± 0.2.

On to ACSEGDVNAVRKLLIEGRSVNEHT [ANKRD17], for which the protein stability index is, setting by setting: under setting [1], 4.22 ± 0.45; under setting [2], 4.64 ± 0.11.

For DDIRKGIVLLEELLPKGSKEEQRD [FIS1], the protein stability index reads like this: under setting [1], 4.63 ± 0.43; under setting [2], 4.6 ± 0.27.

With NVQILLPVGEPVTNVRLQPAATWN [FCHO1], the protein stability index was 2.32 ± 0.22 under setting [1] and 2.44 ± 0.19 under setting [2].

Turning to LCGPHAKAPYLCEATHEPAAARIR, the protein stability index was found to be 3.75 ± 0.2 under setting [1] and 3.61 ± 0.24 under setting [2].

Take NFVYNSPRGYFHTFAGDTCQVALN [WASL]: the protein stability index reads like this: under setting [1], 2.24 ± 0.44; under setting [2], 2.27 ± 0.64.

Turning to RGRFTTYEIRVKTNLPIFKLKEST [SNX3], the protein stability index is, setting by setting: under setting [1], 2.54 ± 0.98; under setting [2], 2.47 ± 0.57.

As to MPLEQRSQHCKPEEGLEARGEALG [MAGEA3], the protein stability index is, setting by setting: under setting [1], 5.34 ± 0.34; under setting [2], 5.39 ± 0.14.

Take SSKSRAAPSPQEALVRLRETEEML [CHMP4C]: the protein stability index reads like this: under setting [1], 2.79 ± 0.58; under setting [2], 3.45 ± 0.81.

Regarding RTLASGRLLSYRGERVAARGYWGD [DNAAF3], the protein stability index reads like this: under setting [1], 2.96 ± 0.17; under setting [2], 3.08 ± 0.19.

With PAPAFQPFFFTGAFPFNMQELVLK [ANKRD40], the protein stability index is, setting by setting: under setting [1], 2.07 ± 0.82; under setting [2], 2.77 ± 1.2.

As for VNLYLGRSHFLWKEPATMSWLEEN [TCF25], the protein stability index reads like this: under setting [1], 2.36 ± 0.53; under setting [2], 2.54 ± 0.56.

For IKEEENSEEELAAATTSKEQEPIG [MYBL2], the protein stability index came out at 5.7 ± 0.31 under setting [1] and 5.72 ± 0.21 under setting [2].

For DSLKPEQLDIEEEGRPGAATFHVG [TFE3], the protein stability index is, setting by setting: under setting [1], 5.38 ± 0.093; under setting [2], 4.96 ± 0.4.

Take FLSEEEYWKLQIFFTNVIQALGEH [CCNC]: the protein stability index is, setting by setting: under setting [1], 2.42 ± 0.96; under setting [2], 2.36 ± 0.084.

Regarding PTGLLALQQIADFMTTNVPNVYPA [ADD1], the protein stability index by setting is: under setting [1], 2.1 ± 0.47; under setting [2], 2.14 ± 0.25.

Consider LPSLGCRTSCSSRPCVPPSCHGYT [KRT34], for which the protein stability index runs as follows: under setting [1], 2.32 ± 0.26; under setting [2], 2.2 ± 0.11.

Take GPRVGEALVSHPEVPLISFTGSQP [ALDH8A1]: the protein stability index was found to be 3.77 ± 0.34 under setting [1] and 4.09 ± 0.31 under setting [2].

In the case of LSTLAGIRVMVHGRNHTPFLGHHS [SCNN1D], the protein stability index turned out to be 2.69 ± 0.28 under setting [1] and 2.64 ± 0.23 under setting [2].

For the sequence LGKGAFSVVRRCVKVLAGQEYAAK [CAMK2A], the protein stability index by setting is: under setting [1], 2.61 ± 0.4; under setting [2], 2.38 ± 0.61.

FGSFLLLLFSLTQFSVVSVVAYLA [RTN1] yielded a protein stability index under setting [1] of 3.14 ± 0.62 and a protein stability index under setting [2] of 3.35 ± 0.6.

Take NETVNSIFAQGAPRSSLAESFFVD [ADAMTSL2]: the protein stability index worked out at 3.77 ± 0.086 under setting [1] and 3.86 ± 0.073 under setting [2].

On to LYVSGLPKTMSQKEMEQLFSQYGR [ELAVL3], for which the protein stability index runs as follows: under setting [1], 2.55 ± 0.14; under setting [2], 2.66 ± 0.39.

VSLDISPDLPFQIKPSENHYSLLT [PCDHGC5]: the protein stability index is, setting by setting: under setting [1], 2.22 ± 0.31; under setting [2], 2.46 ± 0.17.

For the sequence ESAGPSRAVRQSVTSFPDADAFHH [EMD], the protein stability index runs as follows: under setting [1], 4.33 ± 0.86; under setting [2], 4.44 ± 0.18.

As for PSPAPAVAAAAAATTAATAAATTT [SNAP91], the protein stability index is, setting by setting: under setting [1], 5.33 ± 0.31; under setting [2], 5.39 ± 0.17.

GSGFGGGYGGGLGAGFGGGLGAGF [KRT16]: the protein stability index was 2.27 ± 0.25 under setting [1] and 2.54 ± 0.67 under setting [2].

As to HSCVQIKNDVFICGGYNGEVILGD [KLHDC10], the protein stability index by setting is: under setting [1], 1.94 ± 0.27; under setting [2], 2.62 ± 0.42.

As for DIREEIRKVVQSLEQTAREILTLL [TSN], the protein stability index is, setting by setting: under setting [1], 3.73 ± 0.94; under setting [2], 3.57 ± 0.3.

As to PAGKTPVPAGEEEGELGEYRQKLL [VPS39], the protein stability index is, setting by setting: under setting [1], 5.29 ± 0.32; under setting [2], 5.45 ± 0.2.

Consider EVKPKDIIHVVKDQLIGQGIIVKD [TENT5D], for which the protein stability index is 3.52 ± 0.066 under setting [1] and 3.73 ± 0.25 under setting [2].

On to LYLIMEFLPGGDMMTLLMKKDTLT [STK38L], for which the protein stability index reads like this: under setting [1], 3.03 ± 0.13; under setting [2], 2.94 ± 0.81.

For GAFDSFLLRFGVPSPSTLEPHPRP [TNXB], the protein stability index is, setting by setting: under setting [1], 2.99 ± 0.42; under setting [2], 2.97 ± 0.35.

Take QWTVGKLNCPFCGARLGGFNFVST [RNF180]: the protein stability index under setting [1] was determined as 2.46 ± 0.39 and the protein stability index under setting [2] was 2.65 ± 0.54.

For GSKKKFDKCMVCGGDGSGCSKQSG [ADAMTS4], the protein stability index by setting is: under setting [1], 4.18 ± 0.4; under setting [2], 4.02 ± 0.34.

For ILKRLLKEQHLWDVDLLDSKVIEI [DLC1], the protein stability index reads like this: under setting [1], 2.44 ± 1; under setting [2], 2.02 ± 0.68.

With LWVQGDIFRSKLKNRPSSEGSINK [CDC14A], the protein stability index was 2.62 ± 0.19 under setting [1] and 2.92 ± 0.62 under setting [2].

In the case of QALLDVKNIAHQNKFGEDMPHPH [HDAC6], the protein stability index stood at 4.99 ± 0.18 (treatment: DMSO, c terminus: native) and 5.08 ± 0.12 (treatment: MLN4924 1 uM, 8 h, c terminus: native).

For LKVGGILVMPIEDQLTQIMRTGQN [PCMTD1], the protein stability index worked out at 2.66 ± 0.12 under setting [1] and 2.24 ± 0.22 under setting [2].

For the sequence LYYSNFVLALEERFGVRPKVTGYL [MFSD9], the protein stability index reads like this: under setting [1], 2.76 ± 0.86; under setting [2], 2.91 ± 0.79.

Consider KDVKERFSGSLVAALSATGPRFLA [TMEM175], for which the protein stability index is 2.88 ± 0.55 under setting [1] and 2.73 ± 0.68 under setting [2].

As to ERREALCRQLSESESSLEMDDERY [CCDC6], the protein stability index runs as follows: under setting [1], 5.41 ± 0.11; under setting [2], 5.27 ± 0.16.

For the sequence SPGKQPGENSDCHRDSSQAIPITE [ZNF8], the protein stability index is 5.4 ± 0.17 under setting [1] and 5.429 ± 0.041 under setting [2].

For the sequence ALQAAAHASVDIKDVLDFYKQWKE [SMG5], the protein stability index runs as follows: under setting [1], 3.19 ± 0.14; under setting [2], 3.37 ± 0.31.

For CSEGFLINEDLKTCSRVDYCLLSD [MATN2], the protein stability index is 2.99 ± 0.44 under setting [1] and 3.28 ± 0.14 under setting [2].

With VAPATMGSARSHASSRASENQSPS [ZBTB22], the protein stability index is, setting by setting: under setting [1], 4.96 ± 0.073; under setting [2], 5.07 ± 0.14.
